The results in this text go back to the RNAGym collection of RNA variant scans (doi:10.1093/molbev/msab373).

B1: Azoarcus group I ribozyme (parent)
chain: GUGCCUUGCGCCGGGAAACCACGCAAGGGAUGGUGUCAAAUUCGGCGAAACCUAAGCGCCCGCCCGGGCGUAUGGCAACGCCGAGCCAAGCUUCGGCGCCUGCGCCGAUGAAGGUGUAGAGACUAGACGGCACCCACCUAAGGCAAACGCUAUGGUGAAGGCAUAGUCCAGGGAGUGGCGAAAGUCACACAAACCGG

In this data set the parent is B1. Description: reverse-splicing fitness (ratio to wild type); higher = more active; in vitro selection; Mg2+ level not given. The gist of the method: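 An in vitro group I ribozyme library with randomized positions was T7-transcribed and gel-purified. In triplicate, 10 pmol RNA in EPPS pH 7.5 was reacted with 50 pmoles of a 30-nt RNA substrate for 1 h at 37 °C across several added MgCl2 levels (1–48 mM), then stopped with EDTA. Products were reverse transcribed from a substrate-complementary primer, PCR-amplified and sequenced (HiSeq 4000). Fitness is a variant's read proportion after selection over that before, normalised to wild type.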
Take A111U A120U A145U C150U C169G U176G: the reverse-splicing fitness was 0.00227. As for A111U A120U C150A C169U U176C, the figure is 0.0045; as for A111U A120U C150A C169U U176G, 0.00212; as for A111U A120U C150A C169U U176A, 0.00638. A111U A120U A145G C150G U176A: the reverse-splicing fitness came to 0.01. As for A111U A120U A145G C150G U176C, the figure is 0.0225; as for A111U A120U A145G C150G U176G, 0.00387. As for A111U A120G C169U U176C, the figure is 0.055.

Consider A111U A120G C169U U176A, for which the reverse-splicing fitness amounted to 0.0505. The value for A111U A120G C169U U176G was 0.00807; that for A111U A120U A145U C150U C169U was 0.0433. The value for A111U A120U A145U C150U C169G was 0.0304; that for A111U A120U A145U C150U C169A was 0.00404; that for A111U A120G C169G U176A was 0.0412.

For the variant A111U A120G C169G U176C, the reverse-splicing fitness stood at 0.0539. As to A111U A120G C169G U176G, the reverse-splicing fitness turned out to be 0.00419.

For the variant A111U A120G U176A, the reverse-splicing fitness turned out to be 0.0388. The value for A111U A120G U176G was 0.00656; that for A111U A120G U176C was 0.0497. As for A111U A120U A145G C169A U176G, the figure is 0.00247. The value for A111U A120U A145G C169A U176A was 0.00212; that for A111U A120U A145G C169A U176C was 0.00376. In the case of A111U A120U A145G C150U, the reverse-splicing fitness was 0.486.

As for A111U A120U A145G C150A, the reverse-splicing fitness came to 0.0883. As for A111U A120U A145G C150G, the reverse-splicing fitness came to 0.0631.

As to A111U A120U C150G C169A U176A, the reverse-splicing fitness was 0.00451. As for A111U A120U C150G C169A U176C, the figure is 0.0037. Regarding A111U A120U C150G C169A U176G, the reverse-splicing fitness was determined as 0.00232.

As for A111U A145C C150G C169U U176C, the reverse-splicing fitness stood at 0.0128. The value for A111U A145C C150G C169U U176G was 0.00557.

Consider A111U A145C C150G C169U U176A, for which the reverse-splicing fitness was found to be 0.00903. Regarding A111U A120U C169U, the reverse-splicing fitness was 0.0747. With A111U A120U C169A, the reverse-splicing fitness was determined as 0.00533.

Turning to A111U A120U C169G, the reverse-splicing fitness was determined as 0.0555. Turning to A111U A120U A145G C150G C169A U176G, the reverse-splicing fitness amounted to 0.00452.

In the case of A111U A120U A145G C150G C169A U176A, the reverse-splicing fitness amounted to 0.0087.

For the variant A111U A120U A145G C150G C169A U176C, the reverse-splicing fitness turned out to be 0.00774. The value for A111U A120G C150U C169G U176C was 0.0391; that for A111U A120G C150U C169G U176A was 0.0314; that for A111U A120G C150U C169G U176G was 0.00503. Regarding A111U A120U C169U U176C, the reverse-splicing fitness turned out to be 0.0202. As for A111U A120U C169U U176G, the figure is 0.00332; as for A111U A120U C169U U176A, 0.0126. The value for A111U A120U A145U C169A was 0.00401; that for A111U A120U A145U C169G was 0.0519; that for A111U A120U A145U C169U was 0.0617. The value for A111U A120U A145G C169U was 0.076; that for A111U A120U A145G C169G was 0.0528; that for A111U A120U A145G C169A was 0.00419. In the case of A111U A120U A145C U176C, the reverse-splicing fitness is 0.168. Take A111U A120U A145C U176A: the reverse-splicing fitness was determined as 0.194. The value for A111U A120U A145C U176G was 0.0539. As for A111U A145C C150A U176G, the figure is 0.0517; as for A111U A145C C150A U176C, 0.127. As for A111U A145C C150A U176A, the figure is 0.103.

As to A111U A120U A145C C150U U176G, the reverse-splicing fitness turned out to be 0.0208. As for A111U A120U A145C C150U U176A, the figure is 0.0565; as for A111U A120U A145C C150U U176C, 0.0423; as for A111U A120U A145G C169U U176A, 0.0114. The value for A111U A120U A145G C169U U176C was 0.0176. Take A111U A120U A145G C169U U176G: the reverse-splicing fitness came out at 0.00258. Take A111U A120U A145C C169G U176A: the reverse-splicing fitness came out at 0.00441. As for A111U A120U A145C C169G U176G, the reverse-splicing fitness was 0.00199. As for A111U A120U A145C C169G U176C, the reverse-splicing fitness was 0.00515. As for A111U A120U C150U C169U U176G, the figure is 0.00287; as for A111U A120U C150U C169U U176A, 0.0088; as for A111U A120U C150U C169U U176C, 0.0116. The value for A111U A120G C150G C169G was 0.018. As for A111U A120G C150G C169U, the figure is 0.019; as for A111U A120U C150A C169G U176G, 0.00254; as for A111U A120U C150A C169G U176A, 0.00698. A111U A120U C150A C169G U176C: the reverse-splicing fitness was found to be 0.00445.

For A111U A120U A145U C150G C169U U176A, the reverse-splicing fitness was 0.00295. The value for A111U A120U A145U C150G C169U U176C was 0.0031; that for A111U A120U A145U C150G C169U U176G was 0.00222; that for A111U A120U A145U C169A U176G was 0.00231. A111U A120U A145U C169A U176A: the reverse-splicing fitness is 0.00253.

Regarding A111U A120U A145U C169A U176C, the reverse-splicing fitness amounted to 0.00283. As for A111U A120U A145U C150A C169U, the figure is 0.00692; as for A111U A120U A145U C150A C169G, 0.0047. Consider A111U A120U A145U C150A C169A, for which the reverse-splicing fitness was 0.00249. The value for A111U A120U C150G C169G U176C was 0.00285; that for A111U A120U C150G C169G U176G was 0.00237.
